From the RNAGym collection of RNA variant scans (doi:10.7554/elife.80360) come the findings set out here.

B1: HDV Ribozyme (parent)
chain: GGCCGGCAUGGUCCCAGCCUCCUCGCUGGCGCCGGCUGGGCAACAUUCCGAGGGGACCGUCCCCUCGGUAAUGGCGAAUGGGACCCA

Variants of B1 are the subject of the data set. Nature of the data set: self-cleavage, relative activity (ratio to wild type); higher = more cleavage; co-transcriptional.
With G34U G59C, the self-cleavage came to 0.142.
For the variant U37A A51U, the self-cleavage is 0.
Then G34U U46G, with 0.196; and G34U U46C, with 0.161.
Turning to U37A G59U, the self-cleavage stood at 0.181.
In the case of C36G G54A it was 0.0831; in that of C36G G54C, 0.243.
Then G34U G74A, with 0.0821.
With G34U G74U, the self-cleavage is 0.133.
Turning to G34C G55U, the self-cleavage is 0.113.
For the variant G34C G55A, the self-cleavage was 0.147.
Regarding G35U U65C, the self-cleavage is 0.434.
For the variant G35U G81U, the self-cleavage was determined as 0.156.
Then G35U G81A, with 0.108.
On to G35U G81C, for which the self-cleavage came out at 0.133.
Then G34U G55U, with 0.105; and G35U C62G, with 0.259.
In the case of C36G G74U, the self-cleavage stood at 0.111.
For C36G G74C, the self-cleavage is 0.0723.
Regarding U37A C57G, the self-cleavage came out at 0.213.
With U37A C44U, the self-cleavage worked out at 0.0386.
In the case of U37A C44A it was 0.364; in that of G35A G40U, 0.42; in that of G35A G40A, 0.346.
For the variant C36A A83G, the self-cleavage was 0.159.
C36G U60G: the self-cleavage turned out to be 0.0723.
In the case of C36G G39A it was 0.0326; in that of C36U G80A, 0.0923.
In the case of C36U G80C it was 0.12; in that of G35U C58G, 0.323; in that of U37A G81A, 0.166.
Turning to G34U U69C, the self-cleavage amounted to 0.204.
Regarding G34U U69A, the self-cleavage was determined as 0.102.
Consider G35C C61U, for which the self-cleavage was found to be 0.188.
On to G35C C61A, for which the self-cleavage was 0.283.
For the variant G35U A51G, the self-cleavage stood at 0.356.
In the case of G35U G68U it was 0.309.
Then G34U A77U, with 0.163; and G35A G54A, with 0.349; and C36U U47A, with 0.481.
C36G A70G: the self-cleavage was determined as 0.147.
In the case of C36G A51G it was 0.151; in that of G35U G67A, 0.506; in that of G35U G67C, 0.41.
For the variant G34C A70C, the self-cleavage amounted to 0.123.
In the case of G35A C49G it was 0.425; in that of C36U C75A, 0.203.
Take C36A C48A: the self-cleavage is 0.259.
For the variant U37A G50A, the self-cleavage worked out at 0.0361.
In the case of G34U U65A, the self-cleavage was 0.0923.
In the case of C36U A56U it was 0.845.
G34U A56G: the self-cleavage was 0.288.
As for G34C G80C, the self-cleavage came to 0.23.
For G34C G80A, the self-cleavage was 0.138.
Then G34U U47C, with 0.234; and G34C A45U, with 0.0378.
Then G35C G39U, with 0.0302; and C36U A42G, with 0.122.
For G34C G67A, the self-cleavage came out at 0.211.
In the case of G34C G67U, the self-cleavage is 0.166.
In the case of G34C G67C, the self-cleavage came out at 0.123.
For the variant G34C C86A, the self-cleavage stood at 0.13.
Then C36U C41A, with 0.683; and C36U C41G, with 0.45.
Then G34U U37G, with 0.0519; and C36U U46G, with 0.504; and C36A U65G, with 0.394.
In the case of C36U G59C it was 0.923; in that of C36U C57G, 0.79.
Take G34C G40C: the self-cleavage turned out to be 0.113.
In the case of G34C G40A it was 0.354.
For the variant G35A C85U, the self-cleavage amounted to 0.541.
In the case of G34U G73A it was 0.109.
For G34U G73U, the self-cleavage stood at 0.0455.
Regarding G35C C36G, the self-cleavage is 0.0978.
In the case of C36U A87G it was 0.674; in that of U37A G80C, 0.163; in that of G34U A78C, 0.0369.
Regarding G34U A78G, the self-cleavage was determined as 0.111.
Regarding G34U G80C, the self-cleavage turned out to be 0.143.
In the case of G34U G80A it was 0.113; in that of C36G A71G, 0.138; in that of C36G A71C, 0.0475.
For the variant G35C C64G, the self-cleavage amounted to 0.426.
As for C36G C86U, the self-cleavage worked out at 0.0437.
In the case of U37A U65A it was 0.122; in that of C36A A56U, 0.229; in that of C36U C48A, 0.623.
In the case of G34U G38A it was 0.0702; in that of G34U G38U, 0.248; in that of G34U G38C, 0.194.
Then C36G C61G, with 0.0386.
Turning to C36G C61U, the self-cleavage came to 0.121.
With G35C C85G, the self-cleavage came to 0.0923.
As for G34U G81A, the self-cleavage was found to be 0.166.
Regarding C36U G38A, the self-cleavage was 0.191.
Turning to G34C G54C, the self-cleavage is 0.295.
Then G35U C86U, with 0.464; and G35U C86G, with 0.397; and G35U C86A, with 0.35.
Then C36A A70G, with 0.119; and C36A A70U, with 0.163.
G35A U72G: the self-cleavage came out at 0.251.
In the case of G35U C49G it was 0.325.
Turning to C36U G68U, the self-cleavage came out at 0.786.
As to G34U A83U, the self-cleavage stood at 0.173.
Turning to G34U A83C, the self-cleavage worked out at 0.133.
Regarding C36G G55A, the self-cleavage stood at 0.117.
As for G34U G53A, the self-cleavage was 0.189.
Regarding G35C A78C, the self-cleavage was 0.0519.
Consider G35C G53C, for which the self-cleavage worked out at 0.208.
In the case of G35C G53A it was 0.172; in that of G35U U60G, 0.285; in that of U37A A45U, 0.175.
Consider U37A A45C, for which the self-cleavage was 0.0707.
Then U37A G55A, with 0.283; and G34C C61U, with 0.154; and C36A G68U, with 0.157.
As for C36A G68C, the self-cleavage is 0.235.
As for C36U U37G, the self-cleavage turned out to be 0.166.
Then C36U U37A, with 0.0978.
In the case of G35A C62A it was 0.526; in that of G34C G50C, 0.288; in that of G35C U37C, 0.18.
Then U37A, with 0.216.
Regarding C36U U69C, the self-cleavage came out at 0.801.
For the variant G34C U65A, the self-cleavage was determined as 0.138.
G34C U65G: the self-cleavage is 0.208.
Consider C36A C75A, for which the self-cleavage came out at 0.175.
For C36A G82U, the self-cleavage was determined as 0.0839.
Then G34U A51U, with 0.169; and C36U C44G, with 0.231; and C36A G59U, with 0.138.
In the case of G35C G82A it was 0.147; in that of G35U G76C, 0.62.
For G35U G76U, the self-cleavage was determined as 0.595.
In the case of C36U C66G it was 0.767; in that of C36U G74C, 0.253.
As to C36U G74A, the self-cleavage is 0.205.
Then C36U G73A, with 0.428; and C36U G73U, with 0.0692; and G34C G53C, with 0.0898.
In the case of C36G U65G it was 0.244; in that of C36A A45U, 0.0475; in that of G35C G40A, 0.271.
In the case of C36A G76C it was 0.241; in that of G35A C64G, 0.31; in that of G34U G54U, 0.0923.
As to G35U G59U, the self-cleavage is 0.53.
Then G34U C84G, with 0.161; and C36U G54C, with 0.872.
On to G35A C36A, for which the self-cleavage came to 0.115.
In the case of G34C C64A it was 0.0739.
In the case of G35U A83U it was 0.145; in that of C36G G67C, 0.148.
As for C36A G80C, the self-cleavage was 0.178.
Then G34C C48A, with 0.161; and G34C G73U, with 0.0627; and G34C C57U, with 0.188.
With C36A C66A, the self-cleavage amounted to 0.151.
Then G34U, with 0.19; and G35A A78C, with 0.0528; and G34C U47G, with 0.133.
For the variant G34C U47A, the self-cleavage is 0.161.
In the case of C36G G38A, the self-cleavage stood at 0.143.
Consider G35U G39A, for which the self-cleavage turned out to be 0.0906.
Then C36U G53C, with 0.815.
